One block for each molecule: values may come before it.
Key:
[1] = target: mouse NGL-1 extracellular fragment (LRR and Ig domains) (mouse); assay: AUC
[2] = target: T1, human NGL-2 extracellular fragment (LRR and Ig domains) (human); assay: AUC
T1 sequence (Q9HBW1 whole entry, looked up): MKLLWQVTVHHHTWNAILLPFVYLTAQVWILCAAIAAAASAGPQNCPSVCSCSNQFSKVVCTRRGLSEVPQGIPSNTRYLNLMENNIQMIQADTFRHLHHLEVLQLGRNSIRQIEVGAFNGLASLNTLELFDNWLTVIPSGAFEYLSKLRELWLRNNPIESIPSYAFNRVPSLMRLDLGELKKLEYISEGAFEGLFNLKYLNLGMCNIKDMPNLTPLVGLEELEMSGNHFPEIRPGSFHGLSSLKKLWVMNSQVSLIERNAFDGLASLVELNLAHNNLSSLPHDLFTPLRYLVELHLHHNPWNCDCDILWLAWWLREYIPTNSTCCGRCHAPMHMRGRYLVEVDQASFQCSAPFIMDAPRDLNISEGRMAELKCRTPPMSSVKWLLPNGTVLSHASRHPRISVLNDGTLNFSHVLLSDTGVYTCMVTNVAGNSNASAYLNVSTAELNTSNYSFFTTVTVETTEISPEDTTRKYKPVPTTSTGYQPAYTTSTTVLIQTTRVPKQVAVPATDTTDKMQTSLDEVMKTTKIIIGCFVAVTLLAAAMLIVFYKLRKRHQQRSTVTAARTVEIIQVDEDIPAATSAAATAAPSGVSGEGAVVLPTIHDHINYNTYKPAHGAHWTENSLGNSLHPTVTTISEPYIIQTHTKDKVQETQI

- Kd [1]: 505 nM
- stoichiometry N [1]: 1
Molecule: mouse netrin G1 isoform G1f (LN and LE1 domains) (natural protein)

- Kd [1]: 1490 nM
Molecule: mouse netrin G1 isoform G1j (LN domain only) (natural protein)

- Kd [2]: 264 nM
- stoichiometry N [2]: 1
B1: human netrin G2, full ectodomain (LN domain, LE1-3 and C'), lacking only the GPI anchor site (domain or fragment)
chain: DYDICKSWVTTDEGPTWEFYACQPKVMRLKDYVKVKVEPSGITCGDPPERFCSHENPYLCSNECDASNPDLAHPPRLMFDKEEEGLATYWQSITWSRYPSPLEANITLSWNKTVELTDDVVMTFEYGRPTVMVLEKSLDNGRTWQPYQFYAEDCMEAFGMSARRARDMSSSSAHRVLCTEEYSRWAGSKKEKHVRFEVRDRFAIFAGPDLRNMDNLYTRLESAKGLKEFFTLTDLRMRLLRPALGGTYVQRENLYKYFYAISNIEVIGRCKCNLHANLCSMREGSLQCECEHNTTGPDCGKCKKNFRTRSWRAGSYLPLPHGSPNACATAGSFGNCECYGHSNRCSYIDFLNVVTCVSCKHNTRGQHCQHCRLGYYRNGSAELDDENVCIECNCNQIGSVHDRCNETGFCECREGAAGPKCDDCLPTHYWRQGCYPNVCDDDQLLCQNGGTCLQNQRCACPRGYTGVRCEQPRCDPADDDGGLDCDR

- Kd [2]: 180 nM
B2: human sNetrin G2 ("short" netrin G2, LN and LE1 domains only) (domain or fragment)
chain: DYDICKSWVTTDEGPTWEFYACQPKVMRLKDYVKVKVEPSGITCGDPPERFCSHENPYLCSNECDASNPDLAHPPRLMFDKEEEGLATYWQSITWSRYPSPLEANITLSWNKTVELTDDVVMTFEYGRPTVMVLEKSLDNGRTWQPYQFYAEDCMEAFGMSARRARDMSSSSAHRVLCTEEYSRWAGSKKEKHVRFEVRDRFAIFAGPDLRNMDNLYTRLESAKGLKEFFTLTDLRMRLLRPALGGTYVQRENLYKYFYAISNIEVIGRCKCNLHANLCSMREGSLQCECEHNTTGPDCGKCKKNFRTRSWRAGSYLPLPHGSPNACATAGS
modifications: N-linked glycans at Asn105 and Asn111 (seen in the crystal structure)

Source: publication PMC4535689
